The values below are quoted from earlier work in patent publication US20220031810A1, “FORMULATIONS OF GLUCAGON-LIKE-PEPTIDE-2 (GLP-2) ANALOGUES” (Zealand Pharma A/S, priority 2018, published 2022).

Read-outs that look alike come from different tables or passages of the source.

By half-life is commonly meant how long it takes for the measured level to halve. On to `CC[C@H](C)[C@H](NC(=O)[C@H](Cc1ccccc1)NC(=O)[C@H](CC(=O)O)NC(=O)[C@H](CCCNC(=N)N)NC(=O)[C@H](C)NC(=O)[C@H](C)NC(=O)[C@H](CC(C)C)NC(=O)[C@H](CC(N)=O)NC(=O)[C@H](CC(=O)O)NC(=O)[C@H](CC(C)C)NC(=O)[C@@H](NC(=O)[C@@H](NC(=O)[C@H](CC(N)=O)NC(=O)[C@H](CCSC)NC(=O)[C@H](CCC(=O)O)NC(=O)[C@H](CC(=O)O)NC(=O)[C@H](CO)NC(=O)[C@H](Cc1ccccc1)NC(=O)[C@H](CO)NC(=O)CNC(=O)[C@H](CC(=O)O)NC(=O)CNC(=O)[C@@H](N)Cc1c[nH]cn1)[C@@H](C)O)[C@@H](C)CC)C(=O)N[C@@H](CC(N)=O)C(=O)N[C@@H](Cc1c[nH]c2ccccc12)C(=O)N[C@@H](CC(C)C)C(=O)N[C@H](C(=O)N[C@@H](CCC(N)=O)C(=O)N[C@H](C(=O)N[C@@H](CCCCN)C(=O)N[C@H](C(=O)N[C@H](C(=O)N[C@@H](CC(=O)O)C(=O)O)[C@@H](C)O)[C@@H](C)CC)[C@@H](C)O)[C@@H](C)CC` [teduglutide], for which, for the setting “Gly substitution at position 2, compared with native GLP-2”, the half-life result was “about two”.

In the case of “GLP-2 [3-33]: truncated GLP-2 [3-33] (DGSFSDEMNTILDNLAARDFINWLIQTKITD; Glucagon-like peptide 2; UniProt P01275 148-178, looked up, fragment)”, under “in humans”, the half-life was around 27 min.

As to “Hy-His-Ala-Asp-Gly-Ser-Phe-Ser-Asp-Glu-Met-Asn-Thr-Ile-Leu-Asp-Asn-Leu-Ala-Ala-Arg-Asp-Phe-Ile-Asn-Trp-Leu-Ile-Gln-Thr-Lys-Ile-Thr-Asp-OH [GLP-2 [1-33]]”, the half-life result reads like this: (in humans) “around 7 minutes”; (in humans, listed as native GLP-2) “seven”.
